Results reported in article doi:10.1101/2022.05.24.493251.

These binders were tested against T1, Npl3 RRM1 (Saccharomyces cerevisiae, UniProt Q01560 114-201) (assay: NMR titration).
T1 sequence: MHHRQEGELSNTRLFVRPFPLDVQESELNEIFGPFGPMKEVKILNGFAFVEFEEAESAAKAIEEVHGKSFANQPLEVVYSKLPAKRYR

| Binder | binding result |
| --- | --- |
| AAAAAA (ssDNA) [polyA 6mer] | no binding |
| GGGGGG (ssDNA) [polyG 6mer] | no binding |
| TTTTTT (ssDNA) [polyT 6mer] | no binding |
| CCCCCC (ssDNA) [polyC 6mer] | binds |
